Data taken from paper PMC9376112, “XPC–PARP complexes engage the chromatin remodeler ALC1 to catalyze global genome DNA damage repair” (Nature Communications, 2022).
Blank lines part the entries; values can stand above or below the binder they belong to.

Assays:
[1] = molecular target: T1, PARP1-GFP (UniProt P09874 1-1014); test: affinity purification with mass spectrometry; GFP pull-down of PARP1-GFP or GFP-PARP2 from U2OS (FRT) WT cells, label-free proteomics with iBAQ quantification; cells unirradiated or UV-C-irradiated (20 J/m^2, 1 h); conditions: partners not purified
T1 construct: source: U2OS (FRT) WT, stably expressed (Flp-In, doxycycline-inducible), in lysate; not shown: GFP, C-terminal, kept

[2] = molecular target: T2, GFP-PARP2 (UniProt Q9UGN5-2 1-570); test: as above; conditions: partners not purified
T2 construct: also called PARP2-GFP; source: U2OS (FRT) WT, stably expressed (Flp-In, doxycycline-inducible), in lysate; not shown: GFP, N-terminal, kept
T2 sequence (Q9UGN5 other isoform, or with tags, fused parts or gaps): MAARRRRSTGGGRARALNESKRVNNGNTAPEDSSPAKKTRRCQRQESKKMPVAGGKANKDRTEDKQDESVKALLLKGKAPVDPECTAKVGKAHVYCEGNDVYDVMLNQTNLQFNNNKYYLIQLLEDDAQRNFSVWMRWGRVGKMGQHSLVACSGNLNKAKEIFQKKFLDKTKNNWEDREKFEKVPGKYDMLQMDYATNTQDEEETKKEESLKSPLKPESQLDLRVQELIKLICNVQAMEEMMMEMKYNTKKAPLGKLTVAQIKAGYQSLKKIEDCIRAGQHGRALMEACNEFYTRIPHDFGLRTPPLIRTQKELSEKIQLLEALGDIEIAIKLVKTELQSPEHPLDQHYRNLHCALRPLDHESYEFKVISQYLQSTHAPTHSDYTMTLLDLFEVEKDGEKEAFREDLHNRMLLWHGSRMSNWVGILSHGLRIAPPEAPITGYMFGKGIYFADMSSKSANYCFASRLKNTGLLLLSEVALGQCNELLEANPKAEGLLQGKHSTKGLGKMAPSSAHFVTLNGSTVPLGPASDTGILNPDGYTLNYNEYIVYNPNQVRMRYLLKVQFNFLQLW

T1 sequence (P09874 whole entry): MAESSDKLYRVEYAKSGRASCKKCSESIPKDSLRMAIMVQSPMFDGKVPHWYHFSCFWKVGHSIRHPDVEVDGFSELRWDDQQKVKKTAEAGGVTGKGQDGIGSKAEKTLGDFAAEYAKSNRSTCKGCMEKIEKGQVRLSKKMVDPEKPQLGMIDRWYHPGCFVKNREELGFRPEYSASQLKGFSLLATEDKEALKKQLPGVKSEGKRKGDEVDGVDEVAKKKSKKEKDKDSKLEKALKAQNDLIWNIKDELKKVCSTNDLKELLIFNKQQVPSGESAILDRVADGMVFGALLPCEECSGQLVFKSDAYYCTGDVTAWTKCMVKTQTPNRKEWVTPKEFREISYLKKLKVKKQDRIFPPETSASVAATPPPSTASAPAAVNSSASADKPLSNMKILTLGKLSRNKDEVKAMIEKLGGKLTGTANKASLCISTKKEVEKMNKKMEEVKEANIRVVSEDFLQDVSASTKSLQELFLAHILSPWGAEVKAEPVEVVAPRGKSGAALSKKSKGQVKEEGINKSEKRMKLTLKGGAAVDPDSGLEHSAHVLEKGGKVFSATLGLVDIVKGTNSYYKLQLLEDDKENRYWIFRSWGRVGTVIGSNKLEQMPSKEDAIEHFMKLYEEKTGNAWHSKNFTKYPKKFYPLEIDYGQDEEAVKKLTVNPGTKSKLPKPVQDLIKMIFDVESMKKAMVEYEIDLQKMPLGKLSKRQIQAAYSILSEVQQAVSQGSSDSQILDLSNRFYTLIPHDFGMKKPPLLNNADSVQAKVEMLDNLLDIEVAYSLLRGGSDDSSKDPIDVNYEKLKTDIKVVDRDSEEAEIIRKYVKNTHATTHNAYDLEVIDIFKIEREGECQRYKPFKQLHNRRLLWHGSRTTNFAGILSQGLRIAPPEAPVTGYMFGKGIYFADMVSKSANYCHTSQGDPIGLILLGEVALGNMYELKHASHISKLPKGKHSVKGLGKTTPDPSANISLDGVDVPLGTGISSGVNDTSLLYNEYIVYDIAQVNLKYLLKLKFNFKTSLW

percent of the isolated bait molecules associated with the prey (iBAQ) [1]: 0.07%
percent of the isolated bait molecules associated with the prey (iBAQ) [2]: ~15%
B1: ALC1 (endogenous) (enzyme, human (endogenous in U2OS), UniProt Q86WJ1 1-897, looked up)
chain: MERAGATSRGGQAPGFLLRLHTEGRAEAARVQEQDLRQWGLTGIHLRSYQLEGVNWLAQRFHCQNGCILGDEMGLGKTCQTIALFIYLAGRLNDEGPFLILCPLSVLSNWKEEMQRFAPGLSCVTYAGDKEERACLQQDLKQESRFHVLLTTYEICLKDASFLKSFPWSVLVVDEAHRLKNQSSLLHKTLSEFSVVFSLLLTGTPIQNSLQELYSLLSFVEPDLFSKEEVGDFIQRYQDIEKESESASELHKLLQPFLLRRVKAEVATELPKKTEVVIYHGMSALQKKYYKAILMKDLDAFENETAKKVKLQNILSQLRKCVDHPYLFDGVEPEPFEVGDHLTEASGKLHLLDKLLAFLYSGGHRVLLFSQMTQMLDILQDYMDYRGYSYERVDGSVRGEERHLAIKNFGQQPIFVFLLSTRAGGVGMNLTAADTVIFVDSDFNPQNDLQAAARAHRIGQNKSVKVIRLIGRDTVEEIVYRKAASKLQLTNMIIEGGHFTLGAQKPAADADLQLSEILKFGLDKLLASEGSTMDEIDLESILGETKDGQWVSDALPAAEGGSRDQEEGKNHMYLFEGKDYSKEPSKEDRKSFEQLVNLQKTLLEKASQEGRSLRNKGSVLIPGLVEGSTKRKRVLSPEELEDRQKKRQEAAAKRRRLIEEKKRQKEEAEHKKKMAWWESNNYQSFCLPSEESEPEDLENGEESSAELDYQDPDATSLKYVSGDVTHPQAGAEDALIVHCVDDSGHWGRGGLFTALEKRSAEPRKIYELAGKMKDLSLGGVLLFPVDDKESRNKGQDLLALIVAQHRDRSNVLSGIKMAALEEGLKKIFLAAKKKKASVHLPRIGHATKGFNWYGTERLIRKHLAARGIPTYIYYFPRSKSAVLHSQSSSSSSRQLVP
notes: ALC1 (CHD1L), endogenous in U2OS cells; also called poly-(ADP-ribose)-dependent chromatin remodeler ALC1; the remodeler; source: endogenous, U2OS (FRT) WT lysate

fold, fraction of bait molecules associated with XPC, GFP-PARP2 against PARP1-GFP (iBAQ) [2]: 10 fold
B2: XPC (endogenous) (natural protein, human (endogenous in U2OS), UniProt Q01831 1-940, looked up)
chain: MARKRAAGGEPRGRELRSQKSKAKSKARREEEEEDAFEDEKPPKKSLLSKVSQGKRKRGCSHPGGSADGPAKKKVAKVTVKSENLKVIKDEALSDGDDLRDFPSDLKKAHHLKRGATMNEDSNEEEEESENDWEEVEELSEPVLGDVRESTAFSRSLLPVKPVEIEIETPEQAKTRERSEKIKLEFETYLRRAMKRFNKGVHEDTHKVHLLCLLANGFYRNNICSQPDLHAIGLSIIPARFTRVLPRDVDTYYLSNLVKWFIGTFTVNAELSASEQDNLQTTLERRFAIYSARDDEELVHIFLLILRALQLLTRLVLSLQPIPLKSATAKGKKPSKERLTADPGGSSETSSQVLENHTKPKTSKGTKQEETFAKGTCRPSAKGKRNKGGRKKRSKPSSSEEDEGPGDKQEKATQRRPHGRERRVASRVSYKEESGSDEAGSGSDFELSSGEASDPSDEDSEPGPPKQRKAPAPQRTKAGSKSASRTHRGSHRKDPSLPAASSSSSSSKRGKKMCSDGEKAEKRSIAGIDQWLEVFCEQEEKWVCVDCVHGVVGQPLTCYKYATKPMTYVVGIDSDGWVRDVTQRYDPVWMTVTRKCRVDAEWWAETLRPYQSPFMDREKKEDLEFQAKHMDQPLPTAIGLYKNHPLYALKRHLLKYEAIYPETAAILGYCRGEAVYSRDCVHTLHSRDTWLKKARVVRLGEVPYKMVKGFSNRARKARLAEPQLREENDLGLFGYWQTEEYQPPVAVDGKVPRNEFGNVYLFLPSMMPIGCVQLNLPNLHRVARKLDIDCVQAITGFDFHGGYSHPVTDGYIVCEEFKDVLLTAWENEQAVIERKEKEKKEKRALGNWKLLAKGLLIRERLKRRYGPKSEAAAPHTDAGGGLSSDEEEGTSSQAEAARILAASWPQNREDEEKQKLKGGPKKTKREKKAAASHLFPFEQL
notes: XPC, endogenous in U2OS cells; source: endogenous, U2OS (FRT) WT lysate
